The target in this assay is H1G101C, a mutant of X. laevis linker histone H1°, labeled with Cy5 (Xenopus laevis) (UniProt P22844).

Sequence of N-terminally His6-tagged yeast Nap1 (P25293 whole entry): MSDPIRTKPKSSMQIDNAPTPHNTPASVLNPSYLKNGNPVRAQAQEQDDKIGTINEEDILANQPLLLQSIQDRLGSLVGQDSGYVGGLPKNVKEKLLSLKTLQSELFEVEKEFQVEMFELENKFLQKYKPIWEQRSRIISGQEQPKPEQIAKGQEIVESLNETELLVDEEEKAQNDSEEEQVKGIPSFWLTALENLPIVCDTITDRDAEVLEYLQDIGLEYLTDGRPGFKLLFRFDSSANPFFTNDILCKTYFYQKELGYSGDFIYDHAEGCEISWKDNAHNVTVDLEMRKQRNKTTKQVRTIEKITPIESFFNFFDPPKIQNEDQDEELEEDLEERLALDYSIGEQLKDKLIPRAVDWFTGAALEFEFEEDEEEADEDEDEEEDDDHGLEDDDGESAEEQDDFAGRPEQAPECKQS

Take “N-terminally His6-tagged yeast Nap1 (from UniProt P25293 1-417) (natural protein)”: the percent of nucleosomes still bound with H1 with 60 nM Nap1 is 17.5%.

These data come from PMC5436050.
